Columns and labels:
Test in all cases: IEDB peptide-MHC binding, purified MHC/competitive/radioactivity; filed as Kd, often an IC50 or EC50 that approximates it; ≥ and ≤ were set here for values at or beyond the usual limits of such assays
HLA-A*02:03 = target: HLA-A*02:03
HLA-A*33:01 = target: HLA-A*33:01
HLA-A*31:01 = target: HLA-A*31:01
HLA-A*03:01 = target: HLA-A*03:01
HLA-A*11:01 = target: HLA-A*11:01
HLA-A*68:01 = target: HLA-A*68:01
[1] = source organism: Vaccinia virus WR
[2] = source organism: SARS coronavirus Tor2
[3] = source organism: Mammarenavirus brazilense
[4] = source organism: Lassa virus GA391

Sequence	Kd (HLA-A*33:01; [1])	Kd (HLA-A*31:01; [1])	Kd (HLA-A*03:01; [1])	Kd (HLA-A*11:01; [1])	Kd (HLA-A*68:01; [1])	also measured
LLALGCYSQV						Kd (HLA-A*02:03; source organism: Dengue virus 1 Brazil/97-11/1997): 12.7 nM
ELAAHQKKI						Kd (HLA-A*02:03; source organism: Homo sapiens): 2650 nM
GLFGKGGVV						Kd (HLA-A*02:03; source organism: Dengue virus 4 Philippines/H241/1956): 9.95 nM
IIKHIYEQY	≥ 41600 nM	2660 nM	1850 nM	4140 nM	2180 nM	
LIPVSEVLLK	≥ 70000 nM	≥ 70000 nM	5230 nM	609 nM	1210 nM	
TVCTVCGMWK						Kd (HLA-A*33:01; [2]): 587 nM; Kd (HLA-A*31:01; [2]): 188 nM; Kd (HLA-A*03:01; [2]): 24 nM; Kd (HLA-A*11:01; [2]): 5.49 nM; Kd (HLA-A*68:01; [2]): 52.2 nM
AVNTPVSMTY	≥ 70000 nM	7440 nM	71.5 nM	20.7 nM	4660 nM	
FITKEIKNR	6040 nM	3590 nM	≥ 78000 nM	≥ 77900 nM	276 nM	
ITTLLNETAK	≥ 20800 nM	10700 nM	10.9 nM	12.4 nM	11.4 nM	
LMTLDDLAIK	≥ 20900 nM	≥ 40700 nM	1670 nM	478 nM	2490 nM	
SCMVNHSTYY						Kd (HLA-A*33:01; [3]): 8990 nM; Kd (HLA-A*31:01; [3]): 7410 nM; Kd (HLA-A*03:01; [3]): 100 nM; Kd (HLA-A*11:01; [3]): 16700 nM; Kd (HLA-A*68:01; [3]): 15900 nM
ELALTDVEKR	16800 nM	11800 nM	≥ 68800 nM	≥ 69800 nM	149 nM	
KLFKKTDFK	13900 nM	8.08 nM	8.46 nM	8.86 nM	6280 nM	
TTFDAEYCR						Kd (HLA-A*33:01; [2]): 111 nM; Kd (HLA-A*31:01; [2]): 103 nM; Kd (HLA-A*03:01; [2]): ≥ 33800 nM; Kd (HLA-A*11:01; [2]): 76.1 nM; Kd (HLA-A*68:01; [2]): 2.05 nM
STVKTNLYMK	≥ 70000 nM	640 nM	212 nM	3.96 nM	2.27 nM	
SVSPKLFIR						Kd (HLA-A*33:01; [2]): 12500 nM; Kd (HLA-A*31:01; [2]): 116 nM; Kd (HLA-A*03:01; [2]): 7450 nM; Kd (HLA-A*11:01; [2]): 755 nM; Kd (HLA-A*68:01; [2]): 1420 nM
GFCIPSRSK	≥ 77700 nM	179 nM	973 nM	1900 nM	≥ 38600 nM	
TIERIFNAK	1980 nM	240 nM	3190 nM	1.16 nM	19.8 nM	

Sequence	Kd (HLA-A*33:01; [1])	Kd (HLA-A*31:01; [1])	Kd (HLA-A*03:01; [1])	Kd (HLA-A*11:01; [1])	Kd (HLA-A*68:01; [1])	also measured
LSAGVEFLK						Kd (HLA-A*33:01; [2]): 8180 nM; Kd (HLA-A*31:01; [2]): 776 nM; Kd (HLA-A*03:01; [2]): 9.41 nM; Kd (HLA-A*11:01; [2]): 0.171 nM; Kd (HLA-A*68:01; [2]): 0.244 nM
VSSLVKNVNK	≥ 50000 nM	1180 nM	172 nM	40 nM	3360 nM	
SLMSIISTFH						Kd (HLA-A*33:01; [4]): ≥ 25000 nM; Kd (HLA-A*31:01; [4]): 3740 nM; Kd (HLA-A*03:01; [4]): 850 nM; Kd (HLA-A*11:01; [4]): 2280 nM; Kd (HLA-A*68:01; [4]): 3350 nM
QALNSVANR	104 nM	12 nM	≥ 20200 nM	845 nM	55.7 nM	
PSLEYGANY	7940 nM	≥ 10000 nM	17100 nM	≥ 21700 nM	≥ 60600 nM	
GLALYYPSAR						Kd (HLA-A*33:01; [2]): 2840 nM; Kd (HLA-A*31:01; [2]): 993 nM; Kd (HLA-A*03:01; [2]): 226 nM; Kd (HLA-A*11:01; [2]): 1120 nM; Kd (HLA-A*68:01; [2]): 89.8 nM
AVMYMGTLSY						Kd (HLA-A*33:01; [2]): 10800 nM; Kd (HLA-A*31:01; [2]): 3200 nM; Kd (HLA-A*03:01; [2]): 7.67 nM; Kd (HLA-A*11:01; [2]): 7.78 nM; Kd (HLA-A*68:01; [2]): 2580 nM
CICYGSYSLY	2040 nM	4390 nM	0.434 nM	341 nM	1580 nM	
DIVNEHDIKY	≥ 46100 nM	≥ 37200 nM	7030 nM	12600 nM	4610 nM	
RQQLEDIFMR	≥ 58800 nM	7000 nM	4830 nM	10200 nM	2560 nM	
LFKNVRLLK	1010 nM	185 nM	233 nM	885 nM	2090 nM	
PLHKYCVNLY	14400 nM	≥ 23200 nM	≥ 70100 nM	≥ 25600 nM	6570 nM	
VLDIISSKQY	1430 nM	518 nM	601 nM	9680 nM	1390 nM	
ASLKNTISK	≥ 77700 nM	1800 nM	6.45 nM	5.21 nM	3750 nM	
MSAPPAEYK						Kd (HLA-A*33:01; [2]): 1860 nM; Kd (HLA-A*31:01; [2]): 37.8 nM; Kd (HLA-A*03:01; [2]): 4.14 nM; Kd (HLA-A*11:01; [2]): 0.948 nM; Kd (HLA-A*68:01; [2]): 2.36 nM
CIPSRSKMLK	63.2 nM	64.5 nM	1.09 nM	4.27 nM	27.9 nM	
SSGFYFEIAR	179 nM	14.2 nM	≥ 21300 nM	90.6 nM	13.3 nM	
LIVTFRERY	4130 nM	836 nM	4680 nM	187 nM	408 nM	

— the Immune Epitope Database (IEDB)
